Consider 19 molecules from patent publication US20230220021A1 (UNIVERSITY OF COPENHAGEN, published 2023).

Experiment [1] addresses T1, PSD-95-PDZ2 S173A.
T1 chain: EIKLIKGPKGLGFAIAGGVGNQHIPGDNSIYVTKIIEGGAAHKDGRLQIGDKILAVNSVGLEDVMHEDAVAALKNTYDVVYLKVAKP
Description: FP saturation, TAMRA probe titrated with the protein.
Description: (§1) Fluorescence polarization (FP). FP assays were performed in a 384-well plate format. Fluorescence polarization was measured using a Safire 2 plate reader. The instrument Z-factor was optimized for each assay. The G-factor was calibrated to an initial milli polarization value of 20. […] Every measurement was performed in NaPI 50 mM, 50 mM NaCl and 1% BSA at pH 7.2, 25° C. […] The curves were done in triplicates. Then, the polarization was fitted into a one-site binding model using Prism software 8.0 (GraphPad), from which the Kd can be measured. […] The mili polarization (mP) values were plotted as a function of peptide concentration and fitted to a sigmoidal dose-response curve using Prism software 8.0 (GraphPad). The Kᵢ values were calculated according to Nikolovska-Coleska Z. et al.⁴⁰⁻⁴¹
(§2) Obtained binding affinities (Kd values) for each PSD-95-PDZ2 Ala mutants were normalized to PSD-95-PDZ2 WT values to obtain the fold change for each mutation (FIG. 8).

For experiment [2], the target named is T2, PSD-95-PDZ2 K193A.
T2 chain: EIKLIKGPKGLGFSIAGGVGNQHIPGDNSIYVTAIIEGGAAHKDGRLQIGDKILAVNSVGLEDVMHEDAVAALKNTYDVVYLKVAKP
The experiment is described as above.
Description: as §1, §2

Experiment [3] concerns the target T3, PSD-95-PDZ2 T192A.
T3 chain: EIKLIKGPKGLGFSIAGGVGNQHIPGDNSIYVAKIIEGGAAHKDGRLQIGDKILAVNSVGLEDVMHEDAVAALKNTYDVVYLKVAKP
The description is as above.
Description: as §1, §2

The target in experiment [4] is T4, PSD-95-PDZ2 N180A.
T4 chain: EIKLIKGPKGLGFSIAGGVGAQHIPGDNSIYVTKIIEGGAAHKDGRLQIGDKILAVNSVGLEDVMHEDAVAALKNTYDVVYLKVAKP
Described as above.
Description: as §1, §2

Experiment [5] has as its target T5, PSD-95-PDZ2 E226A.
T5 chain: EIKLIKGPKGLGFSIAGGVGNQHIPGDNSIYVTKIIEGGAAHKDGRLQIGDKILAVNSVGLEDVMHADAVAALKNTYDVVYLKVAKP
The experiment is described as above.
Description: as §1, §2

The target of experiment [6] is T6, PSD-95-PDZ2 K233A.
T6 chain: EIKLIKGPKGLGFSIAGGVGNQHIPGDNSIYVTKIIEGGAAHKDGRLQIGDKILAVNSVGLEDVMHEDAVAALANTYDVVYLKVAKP
The experiment is described as above.
Description: as §1, §2

Experiment [7] concerns the target T7, PSD-95-PDZ2 K168A.
T7 chain: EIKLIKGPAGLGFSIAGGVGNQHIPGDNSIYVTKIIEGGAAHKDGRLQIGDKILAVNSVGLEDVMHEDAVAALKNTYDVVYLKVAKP
Described as above.
Description: as §1, §2

For experiment [8], the target named is T8, PSD-95-PDZ2 V229A (UniProt P78352 160-246).
T8 construct: domain: PDZ2; not shown: 7x His tag
Description: FP saturation.

For experiment [9], the target named is T9, (7× His)-PSD-95-PDZ2 wild type (UniProt P78352 160-246).
T9 construct: domain: PDZ2; recombinant from E. coli; also called PSD-95-PDZ2 WT; not shown: 7x His tag
Briefly: FP saturation.

The target in experiment [10] is T10, PSD-95-PDZ2 H225A (UniProt P78352 160-246).
T10 construct: domain: PDZ2; not shown: 7x His tag
Briefly: FP saturation.

Experiment [11] addresses T11, PSD-95-PDZ2 K165A (UniProt P78352 160-246).
T11 construct: domain: PDZ2; also called K165 mutation; not shown: 7x His tag
Description: FP saturation.

Experiment [12] deals with T9, (7× His)-PSD-95-PDZ2 wild type. Description: FP competition.
Target sequence in this assay (P78352 160-246): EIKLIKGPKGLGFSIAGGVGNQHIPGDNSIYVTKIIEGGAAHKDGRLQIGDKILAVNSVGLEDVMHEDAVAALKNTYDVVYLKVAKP
Description: as §1
For experiment [13] the target is unchanged. Briefly: FP competition. The source holds these as a separate data set.
Target sequence in this assay (P78352 160-246): as above
Description: as §1
For experiment [14] the target is unchanged. Description: FP competition. The source holds these as a separate data set.
Target sequence in this assay (P78352 160-246): as above
Description: Fluorescence polarization (FP). FP assays were performed in a 384-well plate format. Fluorescence polarization was measured using a Safire 2 plate reader. The instrument Z-factor was optimized for each assay. The G-factor was calibrated to an initial milli polarization value of 20. […] Every measurement was performed in NaPI 50 mM, 50 mM NaCl and 1% BSA at pH 7.2, 25° C. […] The curves were done in triplicates. […] The mili polarization (mP) values were plotted as a function of peptide concentration and fitted to a sigmoidal dose-response curve using Prism software 8.0 (GraphPad). The Kᵢ values were calculated according to Nikolovska-Coleska Z. et al.⁴⁰⁻⁴¹
For experiment [15] the target is unchanged. Description: FP competition. This is another data set of the same source.
Target sequence in this assay (P78352 160-246): as above
Description: as §1
The target is the same in experiment [16]. Briefly: ITC, 25 °C.
Target sequence in this assay (P78352 160-246): as above
Description: Isothermal titration calorimetry (ITC). […] Proteins were dialyzed against this buffer using Amicon® Ultra-15 centrifugal filter units, with a MWCO 3000 Da.
This assay was performed on an ITC200. The instrument differential power (DP) was set to 10 and the syringe rotating speed to 600 RPM. The assay setup consisted of introducing the protein inside the cell and the peptide (titrant) on the syringe. Calorimetry was performed at 25° C. Each analysis was performed in triplicates. Furthermore, several runs of peptide into buffer were performed in order to remove injection residual heat. Runs were analyzed with Origin 7.0 software (OriginLab).
The target is the same in experiment [17]. Description: FP competition. The source holds these as a separate data set.
Target sequence in this assay (P78352 160-246): as above
Description: as §1
Experiment [18] has the same target. Description: FP competition. The source holds these as a separate data set.
Description: as §1
Data was collected in triplicates and is presented as mean of Kᵢ values±SEM.
For experiment [19] the target is unchanged. Description: FP competition. The source holds these as a separate data set.
Description: Fluorescence polarization (FP). FP assays were performed in a 384-well plate format. Fluorescence polarization was measured using a Safire 2 plate reader. The instrument Z-factor was optimized for each assay. The G-factor was calibrated to an initial milli polarization value of 20. […] Every measurement was performed in NaPI 50 mM, 50 mM NaCl and 1% BSA at pH 7.2, 25° C. […] The curves were done in triplicates. […] The mili polarization (mP) values were plotted as a function of peptide concentration and fitted to a sigmoidal dose-response curve using Prism software 8.0 (GraphPad).
Data was collected in triplicates and is presented as mean of Kᵢ values±SEM

Where two headings read alike, the source gives them in different places. Bridges are numbered along the chain shown (N, C = ends). Where no end group is shown, it is not given here. [ ]: non-standard residue; d: D form.

B1: TAMRA labelled C-terminal GluN2B peptide (KLSSIESDV-COOH) (peptide)
peptide: KLSSIESDV-OH
modifications: also: TAMRA label (site not given here)
notes: also called C-terminal GluN2B TAMRA probe; GluN2B canonical peptide
On to B1, for which the binding result in [1], in experiment [2], in experiment [3], in experiment [4], in experiment [5] and in experiment [6] was “binds” each time. The binding result in experiment [7] is listed as “binds”. Moreover, the “fold loss in affinity vs PDZ2 WT” value in experiment [8] came out at 2 fold; in experiment [11], 5 fold. Further, the Kd in experiment [9] was 4 µM. Moreover, the “fold decrease in affinity vs PDZ2 WT” value in experiment [10] is 5 fold.
In experiment [12], THLETTFTGDGTPKTIRVXQPGQ (cyclic; D-Pro; N-methyl Thr 123) [cyclic nNOS β-hairpin peptide N-Me-T123] displayed a Ki of 0.58 µM. The same molecule had a fold improved affinity in experiment [13] of 2 fold.
Molecule THLETTFTGDGTPXTIRVTQPGQ (cyclic; D-Pro; N-methyl Lys 118) [cyclic nNOS β-hairpin peptide N-Me-K118] gave a Ki in experiment [12] of 0.48 µM. Further, the fold improved affinity in [13] came to 2 fold.
With THLETTFTGDGTPKXIRVTQPGQ (cyclic; D-Pro; allo-Thr at 119) [cyclic nNOS β-hairpin peptide AlloT119], affinity in experiment [14] was put at a Ki of 8.99 µM. This lies in the single-digit micromolar range.
Consider cyclo(C(TAMRA maleimide)THLETTFTGDGTPKTIRVTQ[dP]G) (also called cyclic nNOS TAMRA probe) [cyclic nNOS β-hairpin TAMRA probe, cyclo-(CTHLETTFTGDGTPKTIRVTQpG) labelled with TAMRA], for which the “fold loss in affinity vs PDZ2 WT” value in experiment [8] was 6 fold; in experiment [11], 4 fold. Further, in experiment [9], the Kd is 1 µM.
In the case of XHLETTFTGDGTPKTIRVTQPGQ (cyclic; D-Pro; N-methyl Thr 105) [cyclic nNOS β-hairpin peptide N-Me-T105], the affinity in [12], expressed as Ki, was 4.8 µM. Further, the “fold decrease in affinity” value in [13] amounted to 5 fold.
With XHLETTFTGDGTPKTIRVTQPGC (cyclic by thioether (N-terminal acetyl to Cys); D-Pro, also called thioether bridged analogue) [Cyclo-(Ac105…124pGC), Thioether], the Ki in experiment [15] was found to be 4.8 µM. That is a single-digit micromolar value.

B2: cyclic nNOS β-hairpin peptide (WT), Cyclo-(THLETTFTGDGTPKTIRVTQpG(Qα)) (peptide)
peptide: cyclo(THLETTFTGDGTPKTIRVTQ[dP]GQ)
SMILES: CC[C@H](C)[C@@H]1NC(=O)[C@H]([C@@H](C)O)NC(=O)[C@H](CCCCN)NC(=O)[C@@H]2CCCN2C(=O)[C@H]([C@@H](C)O)NC(=O)CNC(=O)[C@H](CC(=O)O)NC(=O)CNC(=O)[C@H]([C@@H](C)O)NC(=O)[C@H](Cc2ccccc2)NC(=O)[C@H]([C@@H](C)O)NC(=O)[C@H]([C@@H](C)O)NC(=O)[C@H](CCC(=O)O)NC(=O)[C@H](CC(C)C)NC(=O)[C@H](Cc2c[nH]cn2)NC(=O)[C@H]([C@@H](C)O)NC(=O)[C@H](CCC(N)=O)NC(=O)CNC(=O)[C@H]2CCCN2C(=O)[C@H](CCC(N)=O)NC(=O)[C@H]([C@@H](C)O)NC(=O)[C@H](C(C)C)NC(=O)[C@H](CCCNC(=N)N)NC1=O
notes: also called Cyclic WT; Wild type mimic
As to B2, in experiment [16], the “-ΔS*T” value is 0.35 kcal/mol, the Kd was 2.15 µM and the ΔH is -7.74 kcal/mol.
Molecule THLETTFTGDGTPKTIRVTQ[dP]GE-NH2 (lactam N-23) [Cyclo-(105THLETTFTGDGTPKTIRVTQ124pG(Eγ)), Glu side-chain lactam] showed a Ki in experiment [15] of 3.6 µM. In other words, the single-digit micromolar range.

B3: cyclic nNOS β-hairpin peptide T112W G115P (peptide)
peptide: cyclo(THLETTFWGDPTPKTIRVTQ[dP]GQ)
SMILES: CC[C@H](C)[C@@H]1NC(=O)[C@H]([C@@H](C)O)NC(=O)[C@H](CCCCN)NC(=O)[C@@H]2CCCN2C(=O)[C@H]([C@@H](C)O)NC(=O)[C@@H]2CCCN2C(=O)[C@H](CC(=O)O)NC(=O)CNC(=O)[C@H](Cc2c[nH]c3ccccc23)NC(=O)[C@H](Cc2ccccc2)NC(=O)[C@H]([C@@H](C)O)NC(=O)[C@H]([C@@H](C)O)NC(=O)[C@H](CCC(=O)O)NC(=O)[C@H](CC(C)C)NC(=O)[C@H](Cc2c[nH]cn2)NC(=O)[C@H]([C@@H](C)O)NC(=O)[C@H](CCC(N)=O)NC(=O)CNC(=O)[C@H]2CCCN2C(=O)[C@H](CCC(N)=O)NC(=O)[C@H]([C@@H](C)O)NC(=O)[C@H](C(C)C)NC(=O)[C@H](CCCNC(=N)N)NC1=O
Molecule B3 registered a Ki in experiment [17] of 0.95 µM.
THLETTFTGDGTPKTIRVTQ[dP]GD-NH2 (lactam N-23) [Cyclo-(105THLETTFTGDGTPKTIRVTQ124pG(Dγ)), Asp side-chain lactam] came in with a Ki in experiment [15] of 4.29 µM.

B4: cyclic nNOS β-hairpin peptide G115P T116E (peptide)
peptide: cyclo(THLETTFTGDPEPKTIRVTQ[dP]GQ)
SMILES: CC[C@H](C)[C@@H]1NC(=O)[C@H]([C@@H](C)O)NC(=O)[C@H](CCCCN)NC(=O)[C@@H]2CCCN2C(=O)[C@H](CCC(=O)O)NC(=O)[C@@H]2CCCN2C(=O)[C@H](CC(=O)O)NC(=O)CNC(=O)[C@H]([C@@H](C)O)NC(=O)[C@H](Cc2ccccc2)NC(=O)[C@H]([C@@H](C)O)NC(=O)[C@H]([C@@H](C)O)NC(=O)[C@H](CCC(=O)O)NC(=O)[C@H](CC(C)C)NC(=O)[C@H](Cc2c[nH]cn2)NC(=O)[C@H]([C@@H](C)O)NC(=O)[C@H](CCC(N)=O)NC(=O)CNC(=O)[C@H]2CCCN2C(=O)[C@H](CCC(N)=O)NC(=O)[C@H]([C@@H](C)O)NC(=O)[C@H](C(C)C)NC(=O)[C@H](CCCNC(=N)N)NC1=O
The molecule B4 yielded a Ki in experiment [17] of 22.5 µM.
In experiment [18], TXLETTFTGDGTPKTIRVTQPGQ (cyclic; D-Pro; His(1-Me) at 106) [cyclic nNOS β-hairpin peptide His(1-Me)] gave a Ki of 2.9 µM.
Consider XHLETTFTGDGTPKTIRVTQPGQ (cyclic; D-Pro; phospho-Thr 105) [cyclic nNOS β-hairpin peptide pT105], for which the Ki in experiment [19] was 2.93 µM.
With TXLETTFTGDGTPKTIRVTQPGQ (cyclic; D-Pro; His(3-Me) at 106) [cyclic nNOS β-hairpin peptide His(3-Me)], the affinity in experiment [18], expressed as Ki, was 0.4 µM.
Consider THLETTFXGDGTPKTIRVTQPGQ (cyclic; D-Pro; phospho-Thr 112) [cyclic nNOS β-hairpin peptide pT112], for which the Ki in experiment [19] was 2.68 µM.
Turning to cyclo(CTHLETTFTGDGTPKTIRVTQ[dP]G) (also called NCL peptide) [Cyclo-(C105THLETTFTGDGTPKTIRVTQ124pG), NCL], the Ki in experiment [15] worked out at 1.01 µM.
THLETTFTGDGXPKTIRVTQPGQ (cyclic; D-Pro; phospho-Thr 116) [cyclic nNOS β-hairpin peptide pT116]: the Ki in experiment [19] worked out at 0.21 µM. This lies in the sub-micromolar range.
THLETTFTGDGTPKTIRVXQPGQ (cyclic; D-Pro; phospho-Thr 123) [cyclic nNOS β-hairpin peptide pT123] came in with a Ki in [19] of 1.15 µM.
